Results published in patent US20240228562A1, “NOVEL LIPOCALIN MUTEINS SPECIFIC FOR CONNECTIVE TISSUE GROWTH FACTOR (CTGF)” (PIERIS PHARMACEUTICALS GMBH, priority 2021, published 2024).

Assay: Thermal stability assessment by nanoDSC
Type: physicochemical
Details: 1 mg/mL in PBS, scan 25-100° C. at 1° C./min; for TM: major transition
Description: To determine the melting temperatures (Tms) of the lipocalin muteins, which is a general indicator for folding stability, the CTGF specific muteins, at a protein concentration of 1 mg/mL in PBS (Gibco), were scanned (25-100° C.) at 1° C./min using a capillary nanoDSC instrument (CSC 6300, TA Instruments). […] Several unfolding events can contribute to the observed thermogram. In cases with multiple transitions, the one with the major unfolding energy best represents the overall protein fold and is reported. Muteins were produced as described in Example 3. SEQ ID NOs: 3, 7, 9, 25, and 29 were expressed using E. coli, the other muteins were expressed using CHO cells.
The resulting maximum melting temperatures as well as the onset temperature of melting for exemplary lipocalin muteins and fusion proteins are listed in Table 3 below.

B1: SEQ ID NO: 68: fusion protein comprising two CTGF-binding lipocalin muteins (protein)
chain: QDSTSDLIPAPPLSKVPLQQNFQDNQFQGKWYVVGLAGNAILREDKQPAKMFATIYELKEDKSYDVTSVRFEAKSCSYTSKTFVPGSQPGEFTAGNIKSAPGQTSTLVRVVSTNYNQHAMVFFKHVSQNRETFVITLYGRTKELTSELKENFIRFSKSLGLPENHIVFPVPIDQCIDGGGGGSGGGGSGGGGSQDSTSDLIPAPPLSKVPLQQNFQDNQFQGKWYVVGWAGNVKLREDKQPQKMSATIYELKEDKSYDVTEVVFEQKKCHYIIKTFVPGSQPGEFTAGDIKSPPGYTSSLVRVVSTNYNQHAMVFFKKVSQNREFFWITLYGRTKELTSELKENFIRFSKSLGLPENHIVFPVPIDQCIDG
modifications: fusion protein
- ONSET MELTING: 61 °C
- TM: 72 °C

B2: SEQ ID NO: 71: fusion protein comprising two CTGF-binding lipocalin muteins (protein)
chain: QDSTSDLIPAPPLSKVPLQQNFQDNQFQGKWYVVGLAGNAILREDKYPAKMFATIYELKEDKSYDVTSVRFENKSCVYTIKTFVPGSQPGEFTTGNIKSAPGQTSTLVRVVSTNYNQHAMVFFKHVSQNREFFVITLYGRTKELTSELKENFIRFSKSLGLPENHIVFPVPIDQCIDGGGGGSGGGGSGGGGSQDSTSDLIPAPPLSKVPLQQNFQDNQFQGKWYVVGWAGNVKLREDKQPQKMSATIYELKEDKSYDVTEVVFEQKKCHYIIKTFVPGSQPGEFTAGDIKSPPGYTSSLVRVVSTNYNQHAMVFFKKVSQNREFFWITLYGRTKELTSELKENFIRFSKSLGLPENHIVFPVPIDQCIDG
modifications: fusion protein
- ONSET MELTING: 67 °C
- TM: 76 °C

B3: SEQ ID NO: 69: fusion protein comprising two CTGF-binding lipocalin muteins (protein)
chain: QDSTSDLIPAPPLSKVPLQQNFQDNQFQGKWYVVGLAGNAILREDKQPAKMFATIYELKEDKSYDVTSVRFEAKSCSYTSKTFVPGSQPGEFTAGNIKSAPGQTSTLVRVVSTNYNQHAMVFFKHVSQNRETFVITLYGRTKELTSELKENFIRFSKSLGLPENHIVFPVPIDQCIDGGGGGSGGGGSGGGGSQDSTSDLIPAPPLSKVPLQQNFQDNQFQGKWYVVGLAGNYRLREDKDPSKMGATIYELKEDKSYDVTQVQFDDKKCLYVIETFVPGSQPGEFTLGAIKSYPGLTSQLVRVVSTNYNQHAMVFVKKVWPNLEYFQIVLYGRTKELTSELKENFIRFSKSLGLPENHIVFPVPIDQCIDG
modifications: fusion protein
- ONSET MELTING: 57 °C
- TM: 64 °C

B4: SEQ ID NO: 72: fusion protein comprising two CTGF-binding lipocalin muteins (protein)
chain: QDSTSDLIPAPPLSKVPLQQNFQDNQFQGKWYVVGLAGNAILREDKYPAKMFATIYELKEDKSYDVTSVRFENKSCVYTIKTFVPGSQPGEFTTGNIKSAPGQTSTLVRVVSTNYNQHAMVFFKHVSQNREFFVITLYGRTKELTSELKENFIRFSKSLGLPENHIVFPVPIDQCIDGGGGGSGGGGSGGGGSQDSTSDLIPAPPLSKVPLQQNFQDNQFQGKWYVVGLAGNYRLREDKDPSKMGATIYELKEDKSYDVTQVQFDDKKCLYVIETFVPGSQPGEFTLGAIKSYPGLTSQLVRVVSTNYNQHAMVFVKKVWPNLEYFQIVLYGRTKELTSELKENFIRFSKSLGLPENHIVFPVPIDQCIDG
modifications: fusion protein
- ONSET MELTING: 62 °C
- TM: 66 °C

B5: SEQ ID NO: 64: fusion protein comprising two CTGF-binding lipocalin muteins (protein)
chain: QDSTSDLIPAPPLSKVPLQQNFQDNQFQGKWYVVGLAGNYRLREDKDPSKMGATIYELKEDKSYDVTQVQFDDKKCLYVIETFVPGSQPGEFTLGAIKSYPGLTSQLVRVVSTNYNQHAMVFVKKVWPNLEYFQIVLYGRTKELTSELKENFIRFSKSLGLPENHIVFPVPIDQCIDGGGGGSGGGGSGGGGSQDSTSDLIPAPPLSKVPLQQNFQDNQFQGKWYVVGLAGNAILREDKQPAKMFATIYELKEDKSYDVTSVRFEAKSCKYTIKTFVPGSQPGEFTAGYIKSAPGQTSTLVRVVSTNYNQHAMVFFKHVTQNREIFVITLYGRTKELTSELKENFIRFSKSLGLPENHIVFPVPIDQCIDG
modifications: fusion protein
- ONSET MELTING: 56 °C
- TM: 65 °C

B6: SEQ ID NO: 70: fusion protein comprising two CTGF-binding lipocalin muteins (protein)
chain: QDSTSDLIPAPPLSKVPLQQNFQDNQFQGKWYVVGWAGNVKLREDKQPQKMSATIYELKEDKSYDVTEVVFEQKKCHYIIKTFVPGSQPGEFTAGDIKSPPGYTSSLVRVVSTNYNQHAMVFFKKVSQNREFFWITLYGRTKELTSELKENFIRFSKSLGLPENHIVFPVPIDQCIDGGGGGSGGGGSGGGGSQDSTSDLIPAPPLSKVPLQQNFQDNQFQGKWYVVGLAGNAILREDKQPAKMFATIYELKEDKSYDVTSVRFEAKSCKYTIKTFVPGSQPGEFTAGYIKSAPGQTSTLVRVVSTNYNQHAMVFFKHVTQNREIFVITLYGRTKELTSELKENFIRFSKSLGLPENHIVFPVPIDQCIDG
modifications: fusion protein
- ONSET MELTING: 55 °C
- TM: 73 °C

B7: SEQ ID NO: 63: fusion protein comprising two CTGF-binding lipocalin muteins (protein)
chain: QDSTSDLIPAPPLSKVPLQQNFQDNQFQGKWYVVGRAGNNQLREDKSPPKMWATIYELKEDKSYDVTHVHFSTKKCRYIIDTFVPGSQPGEFTAGAIKSGPGLTSPLVRVVSTNYNQHAMVFFKWVTQNREWFTITLYGRTKELTSELKENFIRFSKSLGLPENHIVFPVPIDQCIDGGGGGSGGGGSGGGGSQDSTSDLIPAPPLSKVPLQQNFQDNQFQGKWYVVGLAGNAILREDKQPAKMFATIYELKEDKSYDVTSVRFEAKSCKYTIKTFVPGSQPGEFTAGYIKSAPGQTSTLVRVVSTNYNQHAMVFFKHVTQNREIFVITLYGRTKELTSELKENFIRFSKSLGLPENHIVFPVPIDQCIDG
modifications: fusion protein
- ONSET MELTING: 50 °C
- TM: 66 °C

B8: SEQ ID NO: 62: fusion protein comprising two CTGF-binding lipocalin muteins (protein)
chain: QDSTSDLIPAPPLSKVPLQQNFQDNQFQGKWYVVGRAGNNQLREDKSPPKMWATIYELKEDKSYDVTHVHFSTKKCRYIIDTFVPGSQPGEFTAGAIKSGPGLTSPLVRVVSTNYNQHAMVFFKWVTQNREWFTITLYGRTKELTSELKENFIRFSKSLGLPENHIVFPVPIDQCIDGGGGGSGGGGSGGGGSQDSTSDLIPAPPLSKVPLQQNFQDNQFQGKWYVVGWAGNVKLREDKQPQKMSATIYELKEDKSYDVTEVVFEQKKCHYIIKTFVPGSQPGEFTAGDIKSPPGYTSSLVRVVSTNYNQHAMVFFKKVSQNREFFWITLYGRTKELTSELKENFIRFSKSLGLPENHIVFPVPIDQCIDG
modifications: fusion protein
- ONSET MELTING: 53 °C
- TM: 67 °C
